The results in this text go back to patent publication US20250019422A1 (MAX PLANCK GESELLSCHAFT ZUR F RDERUNG DER WISSENSCHAFTEN E V, published 2025).

Broadly, the Kd is the equilibrium constant for the complex coming apart.

Where only a bound is given, the exact number is not on record here.

Sequences and labels used below:
B1: Re6H06 (VHH)
VHH: QVQLVESGGGLVQPGGSLRLSCAASGVTLDYYAIGWFRQAPGKEREGVSCTSSSDGSTYYADSVKGRFTISRDNAKNTVYLQMNSLKPEDTGVYYCAVVPQTYYGGKYYSQCTANGMDYWGKGTLVTVSS
B2: Re5D06 (VHH)
VHH: QVQLVESGGGLVQPGGSLRLSCAASGITLDYYAIGWFRQAPGKEREGVSRIRSSDGSTNYADSVKGRFTMSRDNAKNTVYLQMNSLKPEDTAVYYCAYGPLTKYGSSWYWPYEYDYWGQGTQVTVSS
B3: Ma2E06 (VHH)
VHH: QVQLVESGGDLVQPRGSLRLSCAASGITLDYYAIGWFRQAPGKEREGVSYISNTNDKTDYADSVKGRFTISRDNAENTVFLQMNSLQPEDTAVYYCATVPGTYYGGRWYYTWHPEAVRYWGKGTQVTVSS
notes: also called Ma02E06
B4: Re9B09 (VHH)
VHH: QVQLVESGGGLVQPGGSLRLSCAASGFTLDYYAIGWFRQAPGKEREGVSRISSSDGSTDYADSVKGRFTISRDNAKNTVYLQMNSLKPEDTAVYYCATVPGTYYSGNWYYTWHPEAVDYWGKGTQVTVSS
notes: also called ReB09
B5: Re5D06R15 (VHH)
VHH: QVQLVESGGGLVQPGGSLRLSCAASGITLDYYAMGWFREAPGKEREGVARIRNSDGSTNYADSVKGRFTMSRDNAKDTYYLQMNSLEPEDTADYYCAYGPLTKYGSSWYWPYEYDYWGQGTQVTVSS
B6: Re31A12 (VHH)
VHH: QVQLVESGGGLVQSGGSLRLSCLTSGVTLDYYAIGWFRQAPGKEREGVSCTSSSDGSTNYSDSVKGRFIISRDNAKNTVYLQMNSLKPEDTAVYYCAVTPATYYGGRYYFQCPYHDMHYWGKGTLVTVSS
B7: Re32C08 (VHH)
VHH: QVQLVESGGGLVQPGGSLRLSCETSGITLDYYAIGWFLQAPGKEREGVACMRNWDGSTVYAPSVKGRFTISRDNDKKAAYLEMNSLKSEDTGVYYCAAGPLPPGHSCRIPTPLGYDDWGQGTQVTVSS
B8: Re32G01 (VHH)
VHH: QVQLVESGGGLVQPGGSLRLSCETSGITLDYYAIGWFLQAPGKDREGVACMRNWDGSTLYAPSVKGRFTISRDADKEVAYLEMNSLKSEDTGVYYCAAGPLPPGHSCRIPTPLGYDDWGQGTQVTVSS
B9: Ma6F06 (VHH)
VHH: QVQLVESGGGLVQPGGSLRLSCATSGITLDYYAIGWFLQVPGKEREGVACMRNWDGSTLYAPSVKGRFTISRDADKEVAYLEMNSLKSEDTGVYYCAAGPLPPGHSCRIPTPLGYDDWGQGTQVTVSS
B10: Re32B02 (VHH)
VHH: QVQLVESGGGLVQPGGSLRLSCATSGITLDYYAIGWFLQAPGKEREGVSCMRSSDGSTVYAPSVKGRFTISRDNAKKMVYLEMNSLKSEDTGVYYCAAGPLPPGTSCRIPTPLGYDDWGQGTQVTVSS
B11: Re32A10 (VHH)
VHH: QVQLVESGGGLVQPGGSLRLSCATSGITLDYYAIGWFLQAPGKEREGVSCMRSSDGSTVYAPSVKGRFTISRDNAKKMVYLEMNSLKSEDTGVYYCAAGPLPPGTSCRIPTPLGYDDWGQGTQVTVSS
B12: Re32E06 (VHH)
VHH: QVQLVESGGGLVQPGGSLRLSCETSGITLDYYAIGWFLQAPGKEREGVACMRNWDGSTLYAPSVKGRFTISRDNDKKAVYLEMNSLKSEDTGVYYCAAGPLPPGHSCRIPTPLGYDDWGQGTQVTVSS
B13: Re32F02 (VHH)
VHH: QVQLVESGGGLVSPGGSLKLSCAASGLTLDYYGIGWFRQVPGKEREGVSCLGVPDNRTLYAPSVKGRFTISRDNAKNTYYLEMNSLNPEDSAVYYCAAGPVVPGHMCRIPTPLGYDYWGQGTLVTVSS
B14: Re31A08 (VHH)
VHH: QVQLVESGGGLVQPGGSLRLSCAASGITLDYYSIGWFRQAPGKEREGVSCTSSRDDSTDYADSVKGRFTISRDNAKNSVYLQMNSLNPEDTAVYYCALTPATYYSGRYYFQCPPHGMDYWGKGTLVTVSS
B15: Re32D03 (VHH)
VHH: QVQLVESGGGLVQPGGSLRLSCAISGITLDYYAVGWFLQAPGKEREGISCMRNWDGRTVYAPSVKGRFTISSDNAKKMVYLEMDNLKSEDTGVYYCAAGPLPPGISCRIPTPLGYDDWGQGTQVTVSS

The target in one assay is T1, wt_RBD-AviHis (SARS-CoV-2 (original Wuhan strain)). Put plainly: BLI: biotinylated wild type RBD immobilised, VHH in solution, mass transport fit.
Consider B1, for which the Kd is no more than 0.01 nM.
As for B2, the Kd is no more than 0.01 nM.

Another assay concerns the target T1, wt_RBD-AviHis. Put plainly: BLI (Octet), biotinylated RBD on streptavidin biosensors, VHH in solution.
B3 yielded a Kd of 0.04 nM. In other words, the picomolar range.
B1 gave a Kd of no more than 0.01 nM.
The molecule B4 had a Kd of no more than 0.01 nM.
B5: the Kd was no more than 0.01 nM.
On to B6, for which the Kd is 0.12 nM. In other words, the sub-nanomolar range.
Still for that read-out and setting: in the case of B7 it was no more than 0.01 nM; in that of B8, 0.016 nM; in that of B9, no more than 0.01 nM.
Turning to B10, the Kd was no more than 0.01 nM.
As for B11, binding was put at a Kd of 0.004 nM. This counts as picomolar.
Regarding B12, the Kd was no more than 0.01 nM.
Take B13: the Kd is no more than 0.01 nM.
B14 yielded a Kd of 0.06 nM.
B15 registered a Kd of no more than 0.01 nM.

The target in a further assay is T1, wt_RBD-AviHis. Put plainly: BLI: biotinylated wild type RBD immobilised, VHH in solution, mass transport fit. The source holds these as a separate data set. For orientation: BLI is a label-free optical method that tracks binding on a fibre tip over time.
Take B4: the Kd came out at 0.03 nM.
B15: the Kd was no more than 0.01 nM.
